Measurements reported in article PMC11870394 (bioRxiv, 2025).

B1: RSV-2245 Fab (Fab, V domains shown)
VH: QVQLVQSGAEVKKPGASVKVSCKASGYSFSSFGVSWVRQAPGQGLEWLGWISAYNGNTDYAQKVQGRLTMTTDTSTNTAYMELRNLRSDDTAVYYCARDPPASAAAMFDYWGQGTLVTVSS
VL: not shown
B2: RSV-3301 Fab (Fab, V domains shown)
VH: QVQLVESGPTLVKPTQTLTLTCSFSGFSLSTRGVGVGWVRQPPGKALECLGFTYWDGDEYYSPSLRNRVTISKDTSKNQVVLTLTNMDPVDTATYFCVHSDLYDRGGYYLYYFDYWGQGTLVTVSS
VL: DIRVTQSPSSLSASVGDRVTITCRASQTIASYVNWYQQKPGRAPELLIYAASILQSGVPSRFSGRGSGTDFTLTINGLQPEDFATYYCQQSYSSPWTFGQGTKVEIK

Biological target: RSV prefusion F (PR-DM) (respiratory syncytial virus A, UniProt P03420)
Test: cryo-EM structure

| Binder | stoichiometry N [Fab per F trimer] |
| --- | --- |
| B1 | 3 |
| B2 | 3 |
